Measured values reported in US20060040319A1, “Multiple sensor-containing active modified polypeptides, preparation and uses thereof” (priority 2000, published 2006).
Where no end group is shown, it is not given here.

Legend:
[1] = molecular target: T1, GST fusion of mouse c-Abl containing only the SH2 and kinase domains (Mus musculus, UniProt P00520); assay: Kinase assay with truncated c-Abl containing only the SH2 and kinase domains; type: biochemical; conditions: truncated c-Abl, after 60 min
T1 construct: a GST fusion of mouse c-Abl containing only the SH2 and kinase domains; made in house; host or cells: E. coli BL21
T1 sequence (P00520 127-493): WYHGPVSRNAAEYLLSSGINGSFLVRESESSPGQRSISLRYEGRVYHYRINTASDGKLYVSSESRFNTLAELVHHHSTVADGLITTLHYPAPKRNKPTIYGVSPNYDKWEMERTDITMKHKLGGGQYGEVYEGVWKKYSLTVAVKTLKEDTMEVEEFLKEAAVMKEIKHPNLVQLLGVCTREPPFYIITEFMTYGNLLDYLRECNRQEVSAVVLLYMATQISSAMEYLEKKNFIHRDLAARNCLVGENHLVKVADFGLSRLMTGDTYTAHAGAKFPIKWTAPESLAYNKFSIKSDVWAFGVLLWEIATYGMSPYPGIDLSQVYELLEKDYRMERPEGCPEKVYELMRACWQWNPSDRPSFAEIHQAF
Protocol: (§1) Purified Rh-(Crk-II)-Fl prepared as described in Example I was treated with either full length recombinant (Baculovirus/SF9) mouse c-Abl or a GST fusion of mouse c-Abl containing only the SH2 and kinase domains (expressed in E. coli BL21 essentially as described (19)). In a typical experiment, the appropriate c-Abl construct was incubated in reaction buffer (2 mM DTT, 0.2 mg/ml BSA, 10 mM Mg^2+, 50 mM Tris, pH 7.4, either with or without ATP (500 μM)) for 5 min at 30° C. before addition of Rh-(Crk-II)-Fl (final concentration=0.25 μM). In order to ensure that equal amounts of active c-Abl enzyme were added to each reaction, preliminary titration experiments were carried out using an optimized peptide substrate for c-Abl (EAIYAAPFAKKK (SEQ ID No:2) (20)). […] In all cases, aliquots of the reaction mixtures were removed at ˜1 min and 60 min, quenched with EDTA (final conc.=40 mM), and then analyzed by native-PAGE and/or Western blotting and fluorescence spectroscopy. […]
(§2) Fluorescence Spectroscopy. […] Excitation was at 490 nm with a 2.5 nm slit and the fluorescence emission was monitored at 520 nm and 580 nm through a 4 nm slit. […] Rh-(Crk-II)-Fl was treated with full length recombinant c-Abl and aliquots of the reaction mixture were analyzed by fluorescence spectroscopy and western blotting at ˜1 min and 60 min time-points. […]

[2] = molecular target: T2, N-SH3 domain of Crk-II (binding to c-Abl) (Mus musculus, UniProt Q64010); assay: Peptide inhibition study: Crk-II phosphorylation by full length c-Abl in presence of N-SH3 ligand (Rh-(Crk-II)-Fl biosensor); type: biochemical; conditions: fluorescence-based assay
T2 construct: extra Gly plus fluorescein peptide (Cys-Fl-PS, remainder after PreScission site) (C); made in house; host or cells: E. coli BL21 (Crk-II-intein fusion), then ligation of synthetic peptides
Protocol: as §1, §2

T2 sequence (Q64010 with tags, fused parts or gaps): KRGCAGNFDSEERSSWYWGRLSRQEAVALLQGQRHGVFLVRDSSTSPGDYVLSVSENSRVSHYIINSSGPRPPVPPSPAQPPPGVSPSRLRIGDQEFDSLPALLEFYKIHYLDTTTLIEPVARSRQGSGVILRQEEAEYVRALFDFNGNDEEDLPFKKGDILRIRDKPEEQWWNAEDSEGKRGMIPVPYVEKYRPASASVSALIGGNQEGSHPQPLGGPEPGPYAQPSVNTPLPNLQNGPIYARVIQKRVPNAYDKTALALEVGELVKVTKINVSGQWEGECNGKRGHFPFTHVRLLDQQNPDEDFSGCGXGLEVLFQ

| phosphorylation of optimized peptide substrate [1] | effect on Crk-II phosphorylation by c-Abl [2] | Substance |
| --- | --- | --- |
| completely phosphorylated |  | EAIYAAPFAKKK (Peptide Substrate) [optimized peptide substrate for c-Abl, reference compound] |
|  | partially inhibit Crk-II phosphorylation | PPPALPPKRRR-NH2 [high affinity N-SH3 ligand] |
